Columns and labels:
重组人CD40-his蛋白 = target: T1, 重组人CD40-his蛋白 (human, UniProt P25942 21-193); test: BLI (Fortebio Blitz), antibody on AMC sensor, huCD40-his 6.25-200 nM
T1 construct: extracellular domain; Recombinant protein; also called 人CD40(ECD)-his; huCD40-his; not shown: his tag

HEK293T细胞表达的人CD40 = target: T2, HEK293T细胞表达的人CD40 (human, UniProt P25942 21-277); test: flow cytometry on 293T-huCD40 cells
T2 construct: whole, on cells; also called HEK293T-huCD40
T2 sequence (P25942 21-277): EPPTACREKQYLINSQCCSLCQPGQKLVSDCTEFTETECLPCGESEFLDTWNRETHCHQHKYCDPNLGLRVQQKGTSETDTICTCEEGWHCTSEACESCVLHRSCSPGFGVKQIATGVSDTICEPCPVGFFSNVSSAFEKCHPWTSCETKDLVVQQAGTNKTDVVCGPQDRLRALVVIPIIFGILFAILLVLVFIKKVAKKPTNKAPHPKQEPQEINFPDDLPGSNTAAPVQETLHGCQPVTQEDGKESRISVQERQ

T1 sequence (P25942 21-193): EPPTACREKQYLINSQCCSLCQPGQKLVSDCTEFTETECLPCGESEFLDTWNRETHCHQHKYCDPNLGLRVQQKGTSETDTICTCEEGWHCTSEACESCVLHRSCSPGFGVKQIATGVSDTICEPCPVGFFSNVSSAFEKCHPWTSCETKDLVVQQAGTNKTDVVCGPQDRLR

Kd (重组人CD40-his蛋白) | koff (重组人CD40-his蛋白) | kon (重组人CD40-his蛋白) | EC50 (HEK293T细胞表达的人CD40) | Binder
38.2 nM | 0.00533 s⁻¹ | 140000 M⁻¹ s⁻¹ | 0.487 µg/mL | APX005M (antibody, V domains shown) VH: QVQLVESGGGVVQPGRSLRLSCAASGFSFSSTYVCWVRQAPGKGLEWIACIYTGDGTNYSASWAKGRFTISKDSSKNTVYLQMNSLRAEDTAVYFCARPDITYGFAINFWGPGTLVTVSS VL: DIQMTQSPSSLSASVGDRVTIKCQASQSISSRLAWYQQKPGKPPKLLIYRASTLASGVPSRFSGSGSGTDFTLTISSLQPEDVATYYCQCTGYGISWPIGGGTKVEIK
16.5 nM | 0.00223 s⁻¹ | 135000 M⁻¹ s⁻¹ | 0.297 µg/mL | 人源化抗体31 (antibody, human IgG1, kappa, V domains shown, Humanized IgG1/kappa; also called 31A2-2-humanized; 31Humanized) VH: QVQLQESGPGLVKPSETLSLTCTVSGFSLTSYSVHWVRQPPGKGLEWLGMIWSGGSTDYNAAFISRLTISKDNSKSQVSLKLSSVTAADTAVYYCARVGGDYWGQGTTVTVSS VL: DVVMTQSPLSLPVTLGQPASITCRSSQSLLHSRGNTYLHWFQQRPGQSPRLLIYKVSNRFSGVPDRFSGSGSGTDFTLKISRVEAEDVGVYFCFQTTHVPWTFGQGTRLEIKR

Continued, binder first:

Binder | Kd (重组人CD40-his蛋白) | koff (重组人CD40-his蛋白) | kon (重组人CD40-his蛋白) | EC50 (HEK293T细胞表达的人CD40)
嵌合抗体C42 (antibody, human IgG1, kappa, V domains shown, Mouse-human chimeric IgG1/kappa expressed in Expi-293 cells; also called 42Chimeric; 抗体42D11-8的嵌合抗体) VH: QVQLKQSGPGLVQPSQSLSITCTVSGFSLTSYGVHWVRQSPGKGLEWLGMIWSGGSTDYNSAFISRLSISKDNFKSQVFFKMNSLQADDTAIYYCARVGGDYWGQGTTVTVSS VL: DIVITQTPLSLPVSLGDPASISCRSSQSLVHSRGNTYLHWFLQKPGQSPKLLIYKVSNRFSGVPDRFSGSGSGTDFTLRISRLEAEDLGVYFCFQTTHVPWTFGGGTKLEIKR | 13.5 nM | 0.00524 s⁻¹ | 389000 M⁻¹ s⁻¹ | –
嵌合抗体C31 (antibody, human IgG1, kappa, V domains shown, Mouse-human chimeric IgG1/kappa expressed in Expi-293 cells; also called 31Chimeric; 抗体31A2-2的鼠人嵌合抗体) VH: QVQLKESGPGLVQPSQSLSITCTVSGFSLTNYSVHWVRQSPGKGLEWLGMIWSGGSTDYNAAFISRLSISKDNFKSQVFFKMNSLQADDTAIYYCARVGGDYWGQGTTVTVSS VL: DVLMTQTPLSLPVSLGDPASISCRSSQSLLHSRGNTYLHWFLQKPGQSPKLLIYKVSNRFSGVPDRFSGSGSGTDFTLRISRVEAEDLGVYFCFQTTHVPWTFGGGTKLEIKR | 4.52 nM | 0.000395 s⁻¹ | 87500 M⁻¹ s⁻¹ | –
人源化抗体42 (antibody, human IgG1, kappa, V domains shown, Humanized IgG1/kappa; also called 42D11-8-humanized; 42Humanized) VH: QVQLQESGPGLVKPSQTLSLTCTVSGFSLTSYGVHWVRQHPGKGLEWLGMIWSGGSTDYNSAFISRLTISKDNSKSQVSLKLSSVTAADTAVYYCARVGGDYWGQGTTVTVSS VL: DIVITQSPLSLPVTLGQPASITCRSSQSLVHSRGNTYLHWFQQRPGQSPRLLIYKVSNRFSGVPDRFSGSGSGTDFTLKISRVEAEDVGVYFCFQTTHVPWTFGQGTRLEIKR | 33.2 nM | 0.00312 s⁻¹ | 94000 M⁻¹ s⁻¹ | 0.251 µg/mL
